Substrate: CCn1c(=NN=c2sc3cc(S(=O)(=O)O)ccc3n2CC)sc2cc(S(=O)(=O)O)ccc21
Assay: purified protein
Format: biochemical, Pleurotus ostreatus
Details: 50 μL of 1 mM H2O2 in 200 μL (0.25 mM), 0.1 M citric acid–0.2 M Na2HPO4 pH 3.4, ambient temperature

B1: DyP4 (dye-decolorizing peroxidase 4) (Pleurotus ostreatus PC15) (protein)
chain: MTTPAPPLDLNNIQGDILGGLPKRTETYFFFDVTNVDQFKANMAHFIPHIKTSAGIIKDREAIKEHKRQKKPGLVPMAAVNVSFSHLGLQKLGITDDLSDNAFTTGQRKDAEILGDPGSKNGDAFTPAWEAPFLKDIHGVIFVAGDCHGSVNKKLDEIKHIFGVGTSHASISEVTHVRGDVRPGDVHAHEHFGFLDGISNPAVEQFDQNPLPGQDPIRPGFILAKENGDSRAAARPDWAKDGSFLTFRYLFQMVPEFDDFLESNPIVLPGLSRKEGSELLGARIVGRWKSGAPIEITPLKDDPKLAADAQRNNKFDFGDSLVRGDQTKCPFAAHIRKTYPRNDLEGPPLKADIDNRRIIRRGIQFGPEVTSQEHHDKKTHHGRGLLFVCYSSSIDDGFHFIQESWANAPNFPVNAVTSAGPIPPLDGVVPGFDAIIGQKVGGGIRQISGTNPNDPTTNITLPDQDFVVPRGGEYFFSPSITALKTKFAIGVASPAPHSQAPISA
notes: DyP4 without OsmY fusion, pET-24a(+)-DyP4 (NdeI/EcoRI), codon-optimized, untagged, E. coli BL21 (DE3), ion-exchange and SEC purified; forward primer encodes MTTPAPPL
  Km: 895 ± 65 µM
  kcat: 3.86 ± 0.08 s⁻¹
  kcat/Km: 4310 ± 410 M⁻¹ s⁻¹

B2: DyP4 (dye-decolorizing peroxidase 4) (Pleurotus ostreatus PC15; I56V/K109R/N227S/N312S) (protein)
chain: MTTPAPPLDLNNIQGDILGGLPKRTETYFFFDVTNVDQFKANMAHFIPHIKTSAGVIKDREAIKEHKRQKKPGLVPMAAVNVSFSHLGLQKLGITDDLSDNAFTTGQRRDAEILGDPGSKNGDAFTPAWEAPFLKDIHGVIFVAGDCHGSVNKKLDEIKHIFGVGTSHASISEVTHVRGDVRPGDVHAHEHFGFLDGISNPAVEQFDQNPLPGQDPIRPGFILAKESGDSRAAARPDWAKDGSFLTFRYLFQMVPEFDDFLESNPIVLPGLSRKEGSELLGARIVGRWKSGAPIEITPLKDDPKLAADAQRSNKFDFGDSLVRGDQTKCPFAAHIRKTYPRNDLEGPPLKADIDNRRIIRRGIQFGPEVTSQEHHDKKTHHGRGLLFVCYSSSIDDGFHFIQESWANAPNFPVNAVTSAGPIPPLDGVVPGFDAIIGQKVGGGIRQISGTNPNDPTTNITLPDQDFVVPRGGEYFFSPSITALKTKFAIGVASPAPHSQAPISA
notes: as for B1
Variant 4D4
  Km: 390 ± 59 µM
  kcat: 4.52 ± 0.15 s⁻¹
  kcat/Km: 11600 ± 2140 M⁻¹ s⁻¹

B3: DyP4 (dye-decolorizing peroxidase 4) (Pleurotus ostreatus PC15; I56V/K109R/N312S) (protein)
chain: MTTPAPPLDLNNIQGDILGGLPKRTETYFFFDVTNVDQFKANMAHFIPHIKTSAGVIKDREAIKEHKRQKKPGLVPMAAVNVSFSHLGLQKLGITDDLSDNAFTTGQRRDAEILGDPGSKNGDAFTPAWEAPFLKDIHGVIFVAGDCHGSVNKKLDEIKHIFGVGTSHASISEVTHVRGDVRPGDVHAHEHFGFLDGISNPAVEQFDQNPLPGQDPIRPGFILAKENGDSRAAARPDWAKDGSFLTFRYLFQMVPEFDDFLESNPIVLPGLSRKEGSELLGARIVGRWKSGAPIEITPLKDDPKLAADAQRSNKFDFGDSLVRGDQTKCPFAAHIRKTYPRNDLEGPPLKADIDNRRIIRRGIQFGPEVTSQEHHDKKTHHGRGLLFVCYSSSIDDGFHFIQESWANAPNFPVNAVTSAGPIPPLDGVVPGFDAIIGQKVGGGIRQISGTNPNDPTTNITLPDQDFVVPRGGEYFFSPSITALKTKFAIGVASPAPHSQAPISA
notes: as for B1
Variant 3F6
  Km: 427 ± 55 µM
  kcat: 5.02 ± 0.15 s⁻¹
  kcat/Km: 11800 ± 1860 M⁻¹ s⁻¹

Source: article PMC6544594, “Accelerated directed evolution of dye-decolorizing peroxidase using a bacterial extracellular protein secretion system (BENNY)” (Bioresources and Bioprocessing, 2019)
